According to IntAct's records for PubMed 8848052:

B1: mRNA export factor GLE1 (Saccharomyces cerevisiae), Q12315 (parent)
chain: MRFVFDEVFNSDTDSPEFEETCSTTSSTSSQCPTPEPSPAIKLPSFTKVGTKKLVNESVVILDPALENALRDLNLQSKLIPINEPIVAASSIIVPHSTNMPLPRASHSSLLDNAKNSNATAPLLEAIEESFQRKMQNLVLANQKEIQSIRENKRRVEEQRKRKEEEERKRKEAEEKAKREQELLRQKKDEEERKRKEAEAKLAQQKQEEERKKIEEQNEKERQLKKEHEAKLLQQKDKLGKAVTNFDKISKMFWHYKDKIAQIKQDIVLPIKKADVNVRNLLSRHKRKINPKFGQLTNSNQQLFKIQNELTQLINDTKGDSLAYHWILNFIAKAVVHQAETEVRVKPESALPLGKLTLYLLVQFPELQELFMARLVKKCPFVIGFTCEIDTEKGRQNMGWKRNNENKWEDNTSYDERMGGILSLFAIITRLQLPQEFITTTSHPFPIALSWHILARICNTPLNLITNTHFVILGSWWDAAAVQFLQAYGNQASKLLILIGEELTSRMAEKKYVGAARLRILLEAWQNNNMESFPEMSP
partner: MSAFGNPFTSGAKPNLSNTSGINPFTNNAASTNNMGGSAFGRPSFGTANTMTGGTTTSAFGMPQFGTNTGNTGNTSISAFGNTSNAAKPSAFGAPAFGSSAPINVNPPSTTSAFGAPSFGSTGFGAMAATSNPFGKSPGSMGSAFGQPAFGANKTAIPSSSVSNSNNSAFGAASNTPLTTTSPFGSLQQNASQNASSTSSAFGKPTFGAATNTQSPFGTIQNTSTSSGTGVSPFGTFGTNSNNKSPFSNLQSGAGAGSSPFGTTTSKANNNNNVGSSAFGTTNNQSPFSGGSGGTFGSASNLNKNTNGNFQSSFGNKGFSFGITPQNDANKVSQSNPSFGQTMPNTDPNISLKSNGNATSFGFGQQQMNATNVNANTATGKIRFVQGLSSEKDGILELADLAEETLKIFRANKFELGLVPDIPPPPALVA

Variants of: B1
Conditions: with nup42_yeast NUP42, P49686

Variant | effect of a mutation on the interaction
L356A | decreasing interaction
